Consider three molecules from patent publication US20050287150A1 (UNIVERSITY OF MASSACHUSETTS, published 2005).

Assay [1] addresses toxin A subfragment amino acids 1-415 (Clostridium difficile, UniProt P16154 1-415). Nature of the assay: western blot on toxin A subfragments.
Assay [2] has as its target toxin A subfragment amino acids 1-165 (Clostridium difficile, UniProt P16154 1-165). In words: western blot on toxin A subfragments. On the technique in general: In western blotting, separated proteins are transferred to a membrane and probed.
In assay [3] the target is toxin A subfragment amino acids 1-290 (Clostridium difficile, UniProt P16154 1-290). Nature of the assay: western blot on toxin A subfragments.
For assay [4], the target named is T1, C. difficile toxin A (Clostridium difficile, UniProt P16154 1-2710). In words: SPR (Biacore), antibody on protein A-coated chip, toxin A flowed over. In general terms: Surface plasmon resonance follows binding to a sensor surface in real time, without labels.
For assay [5], the target named is T1, C. difficile toxin A. In words: ELISA, 1 ug/ml Toxin A coat, O.D. 405 nm. For orientation: ELISA stands for enzyme-linked immunosorbent assay.
Assay [6] concerns the target T1, C. difficile toxin A. Nature of the assay: ELISA, 1 ug/ml Toxin A coat, O.D. 405 nm, four-parameter fit.
Assay [7] deals with toxin A subfragment amino acids 660-807 (Clostridium difficile, UniProt P16154 660-807). In words: western blot on toxin A subfragments.
Assay [8] has as its target toxin A subfragment amino acids 660-920 (Clostridium difficile, UniProt P16154 660-920). In words: western blot on toxin A subfragments.

B1: human monoclonal antibody produced by hybridoma clone 1B11 (antibody, V domains shown)
VH: QMQLVESGGGVVQPGRSLRLSCEASGFSFNSYGMHWVRQAPGKGLEWVSVIWASGNKKYYIESVEGRFTISRDNSKNTLYLQMNSLRAEDTAVYYCARANFDYWGQGTLVTVSS
VL: EIVLTQSPATLSLSPGERATLSCRASQSVSSYLAWYQQKPGQAPRLLIYDASNRATGIPARFSGSGSGTDFTLTISSLEPEDFAVYYCQQRSNWSQFTFGPGTKVDIK
notes: also called HuMAb 1B11
Take B1: in assay [1], the binding result is reported as “no binding”. For the same molecule, the binding result in assay [2] is given as “no binding”. In addition, in assay [3], the binding result is recorded as “no binding”. In the assay with C. difficile toxin A [4], the affinity, expressed as Kd, was 0.738 nM. Also, the “EC50 (read off the curve)” value with C. difficile toxin A [5] is ~2 ng/mL. Moreover, in the assay with C. difficile toxin A [6], the “A (lower asymptote of the four-parameter fit)” value was 0.203 O.D. 405 nm, the “D (upper asymptote of the four-parameter fit)” value was 3.58 O.D. 405 nm and the 50% effective concentration (EC50) was found to be 2 ng/mL.

B2: human monoclonal antibody produced by hybridoma clone 3D8 (antibody, V domains shown)
VH: QVQLVESGGGVVQPGRSLRLSCAASGFSFSNYGMHWVRQAPGKGLEWVALIWYDGSNEDYTDSVKGRFTISRDNSKNTLYLQMNSLRAEDTAVYYCARWGMVRGVIDVFDIWGQGTVVTVSS
VL: DIQMTQSPSSVSASVGDRVTITCRASQGISSWLAWYQHKPGKAPKLLIYAASSLQSGVPSRFSGSGSGTDFTLTISSLQPEDFATYYCQQANSFPWTFGQGTKVEIK
notes: also called HuMAb 3D8
B2 gave a Kd with C. difficile toxin A [4] of 1.46 nM. In addition, in the assay with C. difficile toxin A [6], the “A (lower asymptote of the four-parameter fit)” value worked out at 0.173 O.D. 405 nm, the “D (upper asymptote of the four-parameter fit)” value came out at 3.66 O.D. 405 nm and the EC50 came to 4 ng/mL.

B3: human monoclonal antibody produced by hybridoma clone 33.3H2 (antibody, V domains shown)
VH: QVQLVESGGGVVQPGRSLRLSCAASGFTFNKYGMHWVRQAPGKGLEWVAVIWYDGTNKYYADSMKGRFTISRDNSKNMLYLQMNSLRAEDTAVYYCARDPPTANYWGQGTLVTVSS
VL: DIQMTQSPSSLSASVGDRVTITCRASQGISSWLAWYQQKPEKAPKSLIYAASSLQSGVPSRFSGSGSGTDFTLTISSLQPEDFATYYCQQYKSYPVTFGGGTKVEIK
As to B3, the binding result in assay [7] was “no binding”. Also, the binding result in assay [8] is “no binding”. Moreover, in the assay with C. difficile toxin A [6], the “A (lower asymptote of the four-parameter fit)” value worked out at 0.172 O.D. 405 nm, the “D (upper asymptote of the four-parameter fit)” value was 3.7 O.D. 405 nm and the EC50 was determined as 5 ng/mL.

In general, Kd refers to a measure of binding affinity in units of concentration. High values mean lower affinity, low ones higher affinity. Broadly, the EC50 (read off the curve) is the concentration at which the effect is half-maximal. The term EC50 denotes the midpoint of the concentration-response curve.
